Data on 1 molecule can be found in article PMC7489885 (Cell, 2020).

For this assay, the target named is SARS-CoV-2 RBD (residues 319-541) with an N-terminal His6 tag (SARS-CoV-2, UniProt P0DTC2). Nature of the assay: crystal structure.

B1: BD-236 Fab (Fab, V domains shown)
VH: EVQLVESGGGLIQPGGSLRLSCAASGITVSSNYMSWVRQAPGKGLEWVSVIYSGGSTDYADSVKGRFTISRDKSKNTLYLQMNSLRAEDTAVYYCARDLGEAGGMDVWGQGTTVTVSS
VL: AIQLTQSPSSLSASVGDRVTITCRASQGISSYLAWYQQKPGKAPKLLIYAASTLQSGVPSRFSGSGSGTDFTLTISSLQPEDFATYYCQQLNSYPPAFGGGTKVEIK
For B1, the binding result is recorded as “binds”.
